Reference: article PMC3711453
Where two headings read alike, the source gives them in different places.

Assays:
[1] = target: T1, His6-MTSF1 (lacking first 146 aa) (Arabidopsis thaliana? (Arabidopsis, …, UniProt Q9M9X9 147-987)); assay: EMSA
T1 sequence: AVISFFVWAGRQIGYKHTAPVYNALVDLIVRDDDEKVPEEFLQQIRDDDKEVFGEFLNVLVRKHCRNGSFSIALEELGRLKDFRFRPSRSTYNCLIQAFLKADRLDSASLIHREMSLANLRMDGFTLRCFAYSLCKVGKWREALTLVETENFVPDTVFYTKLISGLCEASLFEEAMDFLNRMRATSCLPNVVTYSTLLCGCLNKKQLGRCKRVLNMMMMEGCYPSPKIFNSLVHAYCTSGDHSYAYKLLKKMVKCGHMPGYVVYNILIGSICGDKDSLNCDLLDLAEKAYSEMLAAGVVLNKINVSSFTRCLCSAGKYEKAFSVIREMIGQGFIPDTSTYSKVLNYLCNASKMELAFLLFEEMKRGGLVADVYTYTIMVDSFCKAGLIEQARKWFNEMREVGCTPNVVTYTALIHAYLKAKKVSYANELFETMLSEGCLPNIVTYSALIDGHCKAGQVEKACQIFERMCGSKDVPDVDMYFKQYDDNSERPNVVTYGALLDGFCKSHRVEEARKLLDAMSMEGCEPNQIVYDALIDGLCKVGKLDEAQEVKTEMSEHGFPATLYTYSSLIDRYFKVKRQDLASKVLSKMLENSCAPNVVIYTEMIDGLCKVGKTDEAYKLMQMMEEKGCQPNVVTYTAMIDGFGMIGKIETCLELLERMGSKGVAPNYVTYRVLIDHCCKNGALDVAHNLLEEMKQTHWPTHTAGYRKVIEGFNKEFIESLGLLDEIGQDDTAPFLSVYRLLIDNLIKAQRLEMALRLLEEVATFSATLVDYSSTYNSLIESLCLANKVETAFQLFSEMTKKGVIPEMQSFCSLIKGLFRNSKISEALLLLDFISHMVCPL

[2] = target: T1, His6-MTSF1 (lacking first 146 aa); assay: EMSA; remark: listed apart in the source

**Q.** Does GAGGAAUCAGCAAAGAAAAGAAAAACGGGU (ssRNA) [3'ND4-1 (entire nad4 3' UTR, 30 nt)] bind [1]?
**A.** Result: binds

**Q.** Does CAAAGAAAAGAAAAACGGGU (ssRNA) [3'ND4-3 (last 20 nt of nad4 3' UTR)] bind [2]?
**A.** Result: binds

**Q.** Does CAACAUCUUAAUGUGUAUUUGAGGAUAUUU (ssRNA) [3'ND4-4 (30 nt downstream of nad4 mRNA 3' end)] bind [1]?
**A.** Result: no binding

**Q.** Does AACAUGGCAAAUUUCAUUGA (ssRNA) [3'ND4-2 (last 20 nt of nad4 coding sequence)] bind [1]?
**A.** Result: no binding
